Article PMC11574245, “Transplacental SARS-CoV-2 protein ORF8 binds to complement C1q to trigger fetal inflammation” (The EMBO Journal, 2024)

The binders below were run against T1, C1q Human protein (human, UniProt P02745 23-245; P02746 28-253; P02747 29-245) (assay: ELISA; plates coated with each of 28 ORF8 peptides (1 mM in carbonate buffer 50 mM pH 9.6, overnight 2-8 °C); human C1q (5, 10, 25 or 100 nM in 3% BSA/TBST) 2 h at room temperature; detected with sheep polyclonal anti-C1Q-HRP). Details: both partners purified.
T1 construct: human complement C1q subcomponent subunit A (A chain of the C1q complex); human complement C1q subcomponent subunit B (B chain of the C1q complex); human complement C1q subcomponent subunit C (C chain of the C1q complex); The methods call it recombinant human C1q; also called human C1q; purified human C1q protein; source: bought: Complement Technology (Cat. A099); copies: 6 + 6 + 6
T1 sequence (P02745 23-245, chain 1 of 3): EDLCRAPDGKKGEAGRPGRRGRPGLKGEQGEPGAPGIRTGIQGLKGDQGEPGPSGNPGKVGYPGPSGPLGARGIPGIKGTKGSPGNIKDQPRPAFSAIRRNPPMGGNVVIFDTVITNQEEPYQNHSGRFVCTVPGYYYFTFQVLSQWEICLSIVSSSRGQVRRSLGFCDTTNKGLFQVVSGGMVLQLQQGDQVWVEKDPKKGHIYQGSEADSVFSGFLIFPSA
T1 sequence (P02746 28-253, chain 2 of 3): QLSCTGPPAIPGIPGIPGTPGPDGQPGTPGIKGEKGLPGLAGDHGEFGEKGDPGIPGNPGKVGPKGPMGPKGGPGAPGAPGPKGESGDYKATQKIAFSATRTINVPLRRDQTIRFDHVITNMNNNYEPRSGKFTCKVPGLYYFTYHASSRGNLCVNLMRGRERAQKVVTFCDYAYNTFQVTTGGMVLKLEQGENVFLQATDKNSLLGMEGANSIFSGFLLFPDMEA
T1 sequence (P02747 29-245, chain 3 of 3): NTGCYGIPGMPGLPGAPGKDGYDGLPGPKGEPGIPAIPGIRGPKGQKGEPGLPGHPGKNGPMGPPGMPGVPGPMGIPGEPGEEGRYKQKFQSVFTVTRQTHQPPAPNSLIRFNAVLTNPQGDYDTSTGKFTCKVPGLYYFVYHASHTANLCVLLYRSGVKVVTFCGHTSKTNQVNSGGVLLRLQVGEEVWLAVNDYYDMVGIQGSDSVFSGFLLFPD
YIDIGNYTVSCLPFT [SARS-CoV-2 ORF8 peptide #19 (Y73-T87)]: binds.
CPIHFYSKWYIRVGA [SARS-CoV-2 ORF8 peptide #10 (C37-A51)]: binds.
SLVVRCSFYEDFLEY [SARS-CoV-2 ORF8 peptide #25 (S97-Y111)]: binds.
